The values below come from patent US20030068675, “Position dependent recognition of GNN nucleotide triplets by zinc fingers” (published 2003).

Substitutions are numbered along the chain they refer to.

Holding throughout (assay): EMSA
Holding throughout (details): tags: MBP fusion
On the technique in general: In EMSA bound probe runs differently from free probe, usually more slowly.

Series [1] has as its target T1, ZFP SBS#527 (synthetic, UniProt P08047).
T1 chain: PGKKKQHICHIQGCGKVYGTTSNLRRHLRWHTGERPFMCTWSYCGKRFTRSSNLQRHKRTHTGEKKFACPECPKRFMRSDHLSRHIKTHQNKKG
An outline of the steps:
(§1)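 Purified ZFP was titrated against labeled double-stranded target (1 nM or lower, at least 10-fold below expected Kd) carrying the natural binding site with flanks. Binding buffer was 10 mM Tris pH 7.5, 100 mM KCl, 1 mM MgCl2, 0.1 mM ZnCl2, 5 mM DTT, 10% glycerol, 0.02% BSA, with equilibration for at least 45 min. Bound and free target were separated on a 10% polyacrylamide gel.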

In series [2] the target is T2, ZFP SBS#528 (synthetic, UniProt P08047).
T2 chain: T1 chain
The procedure, abridged:
as §1

In series [3] the target is T3, ZFP SBS#606 (synthetic, UniProt P08047).
T3 chain: T1 chain with S52D
The procedure, abridged: as §1

The target in series [4] is ZFP SBS#801 (synthetic). The procedure, abridged:
as §1

The target in series [5] is ZFP SBS#804 (synthetic). An outline of the steps: as §1
The target of series [6] is T4, ZFP SBS#803 (synthetic).
T4 chain: T1 chain with T20Q, T21S, N23D, R25Q, S52D, N53E, R78Q, D80G, H81S, S83T
The procedure, abridged: as §1

Series [7] deals with T5, ZFP SBS#894 (synthetic).
T5 chain: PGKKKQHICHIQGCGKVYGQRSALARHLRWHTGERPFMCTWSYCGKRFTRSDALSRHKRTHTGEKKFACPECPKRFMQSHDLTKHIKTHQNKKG
An outline of the steps: as §1

The target in series [8] is T6, ZFP SBS#887 (synthetic).
T6 chain: T5 chain with H80G, T83R, K84T
The procedure, abridged:
as §1

Series [9] addresses T7, ZFP SBS#891 (synthetic).
T7 chain: T5 chain with R21S, A23S, A25V, H80G, D81S, T83R, K84T
The procedure, abridged: as §1

In series [10] the target is T8, ZFP SBS#888 (synthetic).
T8 chain: T5 chain with R21S, A23S, A25V
An outline of the steps: as §1

In series [11] the target is T9, ZFP SBS#672 (synthetic).
T9 chain: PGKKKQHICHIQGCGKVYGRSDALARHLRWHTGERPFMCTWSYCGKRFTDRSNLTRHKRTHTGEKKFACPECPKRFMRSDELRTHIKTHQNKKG
The procedure, abridged: as §1

Series [12] has as its target T10, ZFP SBS#817 (synthetic).
T10 chain: T9 chain with A23S, A25T, D50R, R51S, S52D, T55A, E81N, R83A, T84R
The procedure, abridged: as §1

The target in series [13] is T11, ZFP SBS#884 (synthetic).
T11 chain: T9 chain with A23S, A25T, D50R, R51S, S52D, T55A, E81N, R83V, T84R
The procedure, abridged: as §1

In series [14] the target is T12, ZFP SBS#897 (synthetic).
T12 chain: T9 chain with D50R, R51S, S52D, T55A, E81N, R83V, T84R
An outline of the steps: as §1

Series [15] concerns the target T13, ZFP SBS#738 (synthetic).
T13 chain: T5 chain with Q20E, S22G, A23T, A25T, R26T, A53H, Q78R, H80D, T83R, K84R
An outline of the steps: as §1

For series [16], the target named is T14, ZFP SBS#674 (synthetic).
T14 chain: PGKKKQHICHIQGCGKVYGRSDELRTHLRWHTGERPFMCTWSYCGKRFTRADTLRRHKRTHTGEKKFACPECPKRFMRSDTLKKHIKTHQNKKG
The procedure, abridged: as §1

Series [17] concerns the target T15, ZFP SBS#670 (synthetic).
T15 chain: T5 chain with Q20R, R21S, S22D, A23N, S55A, Q78D, S79R, H80S, D81N, K84R
An outline of the steps: as §1

Series [18] concerns the target T16, ZFP SBS#667 (synthetic).
T16 chain: T1 chain with T20D, T21R, R25T, S52D, N53E, Q55R, R56T, H81N, S83A
An outline of the steps:
as §1

Series [19] concerns the target T17, ZFP SBS#848 (synthetic, UniProt P08047).
T17 chain: T1 chain with T20D, T21R, N23S, R25T, S52D, Q55A
An outline of the steps: as §1

The target in series [20] is T18, ZFP SBS#836 (synthetic, UniProt P08047).
T18 chain: T1 chain with T20E, T21R, S22G, N23T, R25A, S52D, Q55A
The procedure, abridged: as §1

For series [21], the target named is T19, ZFP SBS#669 (synthetic).
T19 chain: T14 chain with A51S, T53N, R55A, R78D, S79R, D80S, T81N, K83T, K84R
The procedure, abridged: as §1

Series [22] has as its target ZFP SBS#850 (synthetic). The procedure, abridged: as §1
The target in series [23] is ZFP SBS#673 (synthetic). The procedure, abridged:
as §1

Series [24] has as its target T20, ZFP SBS#668 (synthetic).
T20 chain: T1 chain with T20E, T21R, S22G, N23T, R25A, S52D, Q55A, H81A, S83A
The procedure, abridged:
as §1

Series [25] addresses T21, ZFP SBS#842 (synthetic, UniProt P08047).
T21 chain: T5 chain with Q20D, A23H, A25T, S55A, Q78R, H80D, D81N, T83A, K84R
The procedure, abridged:
as §1

The target in series [26] is T22, ZFP SBS#829 (synthetic).
T22 chain: T14 chain with R20E, S21K, D22A, E23N, R25T, T26R, A51S, T53N, R55A
The procedure, abridged:
as §1

Series [27] addresses T23, ZFP SBS#828 (synthetic).
T23 chain: T1 chain with T20E, T21K, S22A, R25T, S52D, Q55A, H81E, L82R, S83K
The procedure, abridged:
as §1

Series [28] concerns the target T24, ZFP SBS#671 (synthetic).
T24 chain: T9 chain with A23N
An outline of the steps:
as §1

Chain of ZFP SBS#673 (synthetic) (chain, as listed by the source): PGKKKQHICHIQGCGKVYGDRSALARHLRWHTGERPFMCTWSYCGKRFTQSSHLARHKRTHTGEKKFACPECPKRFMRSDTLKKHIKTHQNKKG
Chain of ZFP SBS#801 (synthetic) (chain, as listed by the source): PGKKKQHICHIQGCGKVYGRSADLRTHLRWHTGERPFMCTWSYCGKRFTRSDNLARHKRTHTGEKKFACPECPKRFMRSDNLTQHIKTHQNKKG

B1: GGGGAGGATC (dsDNA)
DNA 1: GGGGAGGATC
DNA 2: GATCCTCCCC
As to B1, the Kd – broadly, the free concentration of one partner at which half of the binding sites on the other are occupied at equilibrium, for simple one-to-one binding – in series [1] was determined as 2 nM; in series [2] it was 10 nM; in series [3], 0.2 nM.

B2: AAGGAGTCGC (dsDNA)
DNA 1: AAGGAGTCGC
DNA 2: GCGACTCCTT
Consider B2, for which binding in [4] was put at a Kd of 0.85 nM.

B3: GCAGCGGCTC (dsDNA)
DNA 1: GCAGCGGCTC
DNA 2: GAGCCGCTGC
For B3, the figures for the Kd in series [5] and in [6] were 82.5 nM and 57.5 nM, respectively.

B4: TCAGTGGTAT (dsDNA)
DNA 1: TCAGTGGTAT
DNA 2: ATACCACTGA
In the case of B4, the Kd was determined as 6.15 nM in [7], 23.8 nM in series [8], 18.5 nM in [9] and 14 nM in series [10].

B5: TCGGACGTGG (dsDNA)
DNA 1: TCGGACGTGG
DNA 2: CCACGTCCGA
For the molecule B5, binding in series [11] was characterised by a dissociation constant (Kd) of 24 nM.

B6: GAGGAGGTGA (dsDNA)
DNA 1: GAGGAGGTGA
DNA 2: TCACCTCCTC
B6: the results for the Kd in [12], in series [13] and in series [14] were 0.31 nM, 0.15 nM and 0.07 nM, respectively.

B7: GCGGGGTCCG (dsDNA)
DNA 1: GCGGGGTCCG
DNA 2: CGGACCCCGC
In [15], B7 had an equilibrium dissociation constant (Kd) of 120 nM.

B8: GCGGCGTCGG (dsDNA)
DNA 1: GCGGCGTCGG
DNA 2: CCGACGCCGC
Molecule B8 returned a dissociation constant Kd in series [16] of 27.5 nM.

B9: GACGTGGAGG (dsDNA)
DNA 1: GACGTGGAGG
DNA 2: CCTCCACGTC
In the case of B9, in series [17], the Kd amounted to 0.57 nM.

B10: GAGTCGGACG (dsDNA)
DNA 1: GAGTCGGACG
DNA 2: CGTCCGACTC
B10 came in with a Kd in [18] of 50 nM.

B11: GGGGAGGCCC (dsDNA)
DNA 1: GGGGAGGCCC
DNA 2: GGGCCTCCCC
With B11, the results for the Kd in series [19] and in series [20] were 49.5 nM and 24.2 nM, respectively.

B12: GACGAGTCGG (dsDNA)
DNA 1: GACGAGTCGG
DNA 2: CCGACTCGTC
With B12, in series [21], the affinity, expressed as Kd, was 90 nM.

B13: CAGGCTGTGG (dsDNA)
DNA 1: CAGGCTGTGG
DNA 2: CCACAGCCTG
On to B13, for which, in series [22], the dissociation constant Kd was found to be 17 nM.

B14: GCGGGTGTCT (dsDNA)
DNA 1: GCGGGTGTCT
DNA 2: AGACACCCGC
In series [23], B14 returned a Kd of 48.3 nM.

B15: GTGGAGGCCA (dsDNA)
DNA 1: GTGGAGGCCA
DNA 2: TGGCCTCCAC
In [24], B15 came in with a dissociation constant (Kd) of 1.13 nM.

B16: GAGGTGGGCT (dsDNA)
DNA 1: GAGGTGGGCT
DNA 2: AGCCCACCTC
B16 registered a Kd in series [25] of 5.4 nM.

B17: GCGGAGGACC (dsDNA)
DNA 1: GCGGAGGACC
DNA 2: GGTCCTCCGC
B17: the Kd was 0.52 nM in series [26] and 0.1 nM in [27].

B18: TCGGACGAGT (dsDNA)
DNA 1: TCGGACGAGT
DNA 2: ACTCGTCCGA
Take B18: in series [28], the Kd worked out at 64 nM. This lies in the double-digit nanomolar range.
